Entries after “also recorded” stand apart in the source; their conditions may differ.
Legend:
NARC1 transfectants = test system: NARC1 transfectants
Procedure: Following transient expression of this construct in CGNs, the percentage of GFP positive and GFP negative cells undergoing apoptosis was determined by Laser-Scanning Cytometry.
Following transient expression of the wild-type and point-mutant NARC1 constructs in CGNs, the percentage of GFP-positive cells undergoing apoptosis was determined by Laser-Scanning Cytometry.
(§1) The serine protease inhibitors Aminoethyl-benzene sulfonyl fluoride, an irreversible inhibitor (AEBSF), Aprotinin, a reversible inhibitor, and N-Tosyl-lysine-chloromethylketone (TLCK, an inhibitor known to covalently bind to serine proteases) were investigated to see if any of these reagents can rescue the cell death effects of wild-type NARC1. Caspase 9 transfection was included to test for specificity of any rescue effects.
CGNs were transfected with each of the C-terminal truncation mutants described above. Following transient expression of these constructs, the percentage of GFP positive cells undergoing apoptosis was determined by Laser-Scanning Cytometry.

Caspase 9 transfection = conditions: 24-hour exposure
Excerpt: as §1

furin [1] = conditions: Bathurst (1987); cited from earlier work
furin [2] = target: furin (Homo sapiens, UniProt P09958); conditions: cited from earlier work
furin (Homo sapiens, UniProt P09958), sequence (P09958 108-794, species assumed): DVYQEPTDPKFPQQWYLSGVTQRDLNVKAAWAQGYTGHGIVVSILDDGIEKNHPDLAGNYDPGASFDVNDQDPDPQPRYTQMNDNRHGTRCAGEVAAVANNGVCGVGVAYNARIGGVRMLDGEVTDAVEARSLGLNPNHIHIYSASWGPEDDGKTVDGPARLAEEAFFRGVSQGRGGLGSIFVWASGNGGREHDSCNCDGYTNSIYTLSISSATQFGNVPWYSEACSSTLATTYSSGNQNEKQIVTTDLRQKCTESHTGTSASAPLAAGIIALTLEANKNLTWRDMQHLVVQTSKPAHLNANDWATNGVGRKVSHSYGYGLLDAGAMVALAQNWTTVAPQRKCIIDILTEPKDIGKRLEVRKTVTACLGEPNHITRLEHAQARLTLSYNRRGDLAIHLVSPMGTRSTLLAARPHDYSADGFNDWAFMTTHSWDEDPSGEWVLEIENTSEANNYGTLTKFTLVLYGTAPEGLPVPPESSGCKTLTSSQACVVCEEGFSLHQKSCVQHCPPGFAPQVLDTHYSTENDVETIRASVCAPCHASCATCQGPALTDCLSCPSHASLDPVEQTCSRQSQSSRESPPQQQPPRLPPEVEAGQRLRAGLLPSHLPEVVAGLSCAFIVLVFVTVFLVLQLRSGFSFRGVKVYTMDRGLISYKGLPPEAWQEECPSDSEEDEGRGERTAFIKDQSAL

NARC1 [3] = assay: Autoprocessing of NARC1 transiently expressed in COS-7 cells, Western blotting; format: cell-based, rat; conditions: for Autoprocessing Activity: C-terminal myc/His fusion transiently expressed in COS-7 cells, 60 kD processing product on Western blot
Procedure: The wild-type NARC1-myc/His clone was transiently expressed in COS-7 cells. The cells were then harvested, lysed, and the protein extracted. Polyacrylamide gel electrophoresis was then carried out on the protein extracts, followed by Western blotting. The resulting membranes were probed using both anti-myc- and NARC1-specific antibodies. Routine techniques and protocols were followed. See, e.g., Ausubel et al.(1998), supra.
This cleavage event maps to approximately the junction between the pro-domain and the enzymatic domain.
Autoprocessing of NARC1 was investigated as follows. COS-7 cells were co-transfected with the following EGFP and myc plasmids: (A) wild-type NARC1-myc and wild-type NARC1-EGFP; (B) S385A NARC1-myc and S385A NARC1-EGFP; and (C) wild-type NARC1-myc and S385A NARC1-myc. The cells were then harvested, lysed, and the protein extracted. Polyacrylamide gel electrophoresis was then carried out on the protein extracts, followed by Western blotting. The resulting membranes were sequentially probed using first the anti-myc and then the anti-EGFP monoclonal antibodies (Abs). Thus, the experiment allowed sequential detection of the separate NARC1 products encoded from the two co-transfected plasmids.
As indicated above, a series of C-terminal truncation mutants were generated. The truncation NARC1-myc/His clones were transiently expressed in COS-7 cells. The cells were then harvested, lysed, the protein extracted, and polyacrylamide gel electrophoresis carried out on the protein extracts. Western analysis was then carried out using both anti-myc and NARC1-specific antibodies.

NARC1 [4] = target: T1, NARC1 (Rattus norvegicus, UniProt P59996); assay: Autoprocessing of NARC1 expressed in E. coli
T1 construct: made in house; host or cells: E. coli
Procedure: The N-terminus of the processed protein was determined by protein microsequencing.

[5] = test system: cerebellar granule neurons (CGNs); assay: Apoptosis after transient expression of NARC1-EGFP constructs in CGNs, Laser-Scanning Cytometry; format: cell-based, rat; conditions: EGFP construct transiently expressed in CGNs, percentage of GFP-positive cells undergoing apoptosis
Excerpt: Cerebellar granule neurons (CGNs) were transfected with a NARC1-enhanced green fluorescent protein (EGFP) expression construct (with the EGFP sequences located at the carboxy terminus of the fusion protein). Unless otherwise indicated, the construct utilized in the following experiments contained 2073 base pairs of the rat NARC1 transcript set forth in FIG. 5. Specifically, this corresponds to nucleotides 205-2277 and amino acid residues 56-746 of SEQ ID NO:4 and SEQ ID NO:3, respectively. The polypeptide sequence encoded by the NARC1 insert utilized herein has been set forth as SEQ ID NO:9 herein. The nucleotide sequence of this insert has been set forth as SEQ ID NO:10.
To investigate NARC1-mediated neuronal cell death, transient expression of the EGFP clones was carried out in cerebellar granule neurons (CGNs). These studies are set forth in detail as follows.

SY5Y cells = assay: NARC1 overexpression in SY5Y cells, nuclear condensation by Hoechst assay; format: cell-based, human
Procedure: Wild-type and mutant NARC1 were overexpressed in SY5Y cells (a human neuroblastoma cell line). Nuclear condensation was assessed by Hoechst assay.

Ntera2 cells = assay: NARC1-EGFP transfection of Ntera2 cells, nuclear area condensation; format: cell-based, human; conditions: C-terminal EGFP constructs, 24 hours
Procedure: Specifically, Ntera2 cells were transfected with C-terminal EGFP constructs of wild-type NARC1, each of the point-mutant NARC1s, and caspase 9. At 24 hours, nuclear area condensation was assessed for the entire Ntera2 cell population and compared to nuclear area condensation for the transfected cell population.

## Aminoethyl-benzene sulfonyl fluoride [AEBSF]
NARC1 transfectants; 24-hour exposure
  Rescue of cell death in NARC1 transfectants: dose-dependent rescue of cell death
NARC1 transfectants; 48-hour exposure
  Toxicity: appeared toxic
Caspase 9 transfection
  Rescue of Caspase 9-induced cell death: substantial rescue

## variant of α1-antitrypsin: α1-antitrypsin variant with replacement of the reactive-site MET residue by ARG; protein-based furin inhibitor
Furin [1]
  Inhibition of in vitro conversion of proalbumin: inhibit the in vitro conversion of proalbumin

## α1-PDX: α1-antitrypsin variant in which reactive center ALA-ILE-PRO-MET is replaced by ARG-ILE-PRO-ARG
Furin [2]
  Inhibition of cleavage of viral envelope glycoproteins, including HIV gp160: inhibit the cleavage of viral envelope glycoproteins

B1: wild-type NARC1: rat NARC1 subtilase-like protein, residues 56-746 of SEQ ID NO:3, expressed as C-terminal EGFP or myc/His fusion (protein)
chain: MGIRCSTWLRWPLSPQLLLLLLLCPTGSRAQDEDGDYEELMLALPSQEDSLVDEASHVATATFRRCSKEAWRLPGTYVVVLMEETQRLQVEQTAHRLQTWAARRGYVIKVLHVFYDLFPGFLVKMSSDLLGLALKLPHVEYIEEDSLVFAQSIPWNLERIIPAWQQTEEDSSPDGSSQVEVYLLDTSIQSGHREIEGRVTITDFNSVPEEDGTRFHRQASKCDSHGTHLAGVVSGRDAGVAKGTSLHSLRVLNCQGKGTVSGTLIGLEFIRKSQLIQPSGPLVVLLPLAGGYSRILNTACQRLARTGVVLVAAAGNFRDDACLYSPASAPEVITVGATNAQDQPVTLGTLGTNFGRCVDLFAPGKDIIGASSDCSTCYMSQSGTSQAAAHVAGIVAMMLNRDPALTLAELRQRLILFSTKDVINMAWFPEDQRVLTPNRVATLPPSTQETGGQLLCRTVWSAHSGPTRTATATARCAPEEELLSCSSFSRSGRRRGDRIEAIGGQQVCKALNAFGGEGVYAVARCCLLPRVNCSIHNTPAARAGPQTPVHCHQKDHVLTGCSFHWEVENLRAQQQPLLRSRHQPGQCVGHQEASVHASCCHAPGLECKIKEHGIAGPAEQVTVACEAGWTLTGCNVLPGASLPLGAYSVDNVCVARIRDAGRADRTSEEATVAAAICCRSRPSAKASWVHQ
modifications: C-terminal EGFP or myc/His tag; rattus norvegicus
NARC1 [3]
  Autoprocessing Activity: normal autoprocessing
NARC1 [3]; COS-7 cells co-transfected with wild-type and S385A NARC1 carrying different tags, anti-myc then anti-EGFP Western
  Intermolecular cleavage of co-expressed S385A mutant: absence of intermolecular cleavage
NARC1 [4]
  Autoprocessing: underwent autoprocessing
[5]
  Resulting Cell Death Activity: moderately pro-apoptotic
[5]; listed as NARC1-EGFP
  Resulting Cell Death Activity: increase in apoptosis
SY5Y cells
  Promotion of cell death (nuclear condensation): does not promote cell death
Ntera2 cells
  Sensitivity of cells to expression (nuclear area condensation): some sensitivity

B2: H225W, S385A: Full-length NARC1 double mutant; active site histidine and serine mutated (protein)
chain: MGIRCSTWLRWPLSPQLLLLLLLCPTGSRAQDEDGDYEELMLALPSQEDSLVDEASHVATATFRRCSKEAWRLPGTYVVVLMEETQRLQVEQTAHRLQTWAARRGYVIKVLHVFYDLFPGFLVKMSSDLLGLALKLPHVEYIEEDSLVFAQSIPWNLERIIPAWQQTEEDSSPDGSSQVEVYLLDTSIQSGHREIEGRVTITDFNSVPEEDGTRFHRQASKCDSWGTHLAGVVSGRDAGVAKGTSLHSLRVLNCQGKGTVSGTLIGLEFIRKSQLIQPSGPLVVLLPLAGGYSRILNTACQRLARTGVVLVAAAGNFRDDACLYSPASAPEVITVGATNAQDQPVTLGTLGTNFGRCVDLFAPGKDIIGASSDCSTCYMSQSGTAQAAAHVAGIVAMMLNRDPALTLAELRQRLILFSTKDVINMAWFPEDQRVLTPNRVATLPPSTQETGGQLLCRTVWSAHSGPTRTATATARCAPEEELLSCSSFSRSGRRRGDRIEAIGGQQVCKALNAFGGEGVYAVARCCLLPRVNCSIHNTPAARAGPQTPVHCHQKDHVLTGCSFHWEVENLRAQQQPLLRSRHQPGQCVGHQEASVHASCCHAPGLECKIKEHGIAGPAEQVTVACEAGWTLTGCNVLPGASLPLGAYSVDNVCVARIRDAGRADRTSEEATVAAAICCRSRPSAKASWVHQ
modifications: mutant of rat sequence mutating amino acid His225Trp and Ser385Ala of SEQ ID NO9
NARC1 [3]
  Autoprocessing Activity: eliminate NARC1 autoprocessing; also recorded: Absence of processing
NARC1 [3]; listed as double mutant
  Autoprocessing Activity: absence of autoprocessing
[5]
  Resulting Cell Death Activity: somewhat reduce the pro-apoptotic effect; also recorded: Reduced activity
[5]; listed as double mutant
  Resulting Cell Death Activity: reduced, but still substantial, pro-apoptotic effect
Ntera2 cells
  Sensitivity of cells to expression (nuclear area condensation): equally sensitive

From patent US20030119038A1, “NARC1, novel subtilase-like homologs” (priority 1999, published 2003)
